The record followed here is US20240228612A1 (SICHUAN KELUN BIOTECH BIOPHARMACEUTICAL, published 2024).

T1: human Nectin-4 protein (human, UniProt Q96NY8 32-349)
T1 construct: Purified protein used for coating in ELISA and as analyte in Octet; also called human Nectin-4 antigen
T1 sequence (looked up): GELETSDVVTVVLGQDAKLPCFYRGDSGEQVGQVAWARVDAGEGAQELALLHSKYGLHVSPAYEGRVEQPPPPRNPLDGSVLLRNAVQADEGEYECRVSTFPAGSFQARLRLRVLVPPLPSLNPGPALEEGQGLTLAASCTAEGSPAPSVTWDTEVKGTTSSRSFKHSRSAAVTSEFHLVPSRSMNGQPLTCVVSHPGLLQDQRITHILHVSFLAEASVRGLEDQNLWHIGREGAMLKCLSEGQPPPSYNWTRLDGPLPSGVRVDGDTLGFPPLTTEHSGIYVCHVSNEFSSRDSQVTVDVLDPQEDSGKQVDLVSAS

T2: two IgC domains of human Nectin-4 overexpressed on A549 cells (human, UniProt Q96NY8 148-349, limits assumed)
T2 construct: domain: two IgC domains; also called A549-Nectin-4-IgCC
T2 sequence (looked up): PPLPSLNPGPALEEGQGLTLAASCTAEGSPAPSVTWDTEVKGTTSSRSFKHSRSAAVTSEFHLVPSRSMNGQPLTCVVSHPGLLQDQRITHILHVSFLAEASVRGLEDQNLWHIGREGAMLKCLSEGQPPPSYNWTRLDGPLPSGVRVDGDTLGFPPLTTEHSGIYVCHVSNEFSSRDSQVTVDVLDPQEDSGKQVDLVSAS

B1: anti-human Nectin-4 humanized monoclonal antibody 74HZ (antibody, human IgG1, kappa, V domains shown)
VH: QVQLVQSGAEVKKPGSSVKVSCKASGYTFINYWMNWVRQAPGQGLEWIGMIHPSDSATRLNQSFQGRVTLTVDKSTSTAYMELSSLRSEDTAVYYCARWGNFYTVNAWYYFDYWGQGTLVTVSS
VL: DIVITQSPDSLAVSLGERATINCKSSQTLLNSNTQKNYLAWYQQKPGQSPKLLFYFASTRESGVPDRFSGSGSGTDFTLTISSLQAEDVAVYFCQQHYSTPLTFGQGTKLEIKR
notes: Human IgG1 heavy chain constant region, human kappa light chain constant region; expressed in CHO-E cells
B2: anti-human Nectin-4 humanized monoclonal antibody 31HZ (antibody, human IgG1, kappa, V domains shown)
VH: QVQLVQSGAEVKKPGSSVKVSCKASGYTFTDYWMNWVRLAPGQGLEWIGMIHPSDSETRLNQKFQGRVTLTVDKSTSTAYMELSSLRSEDTAVYYCARWDFRIYYAMDYWGQGTLVTVSS
VL: B1 VL with I2V, T28S, S32T, T34S, F54V, Q106G, L110V
notes: as for B1
B3: anti-human Nectin-4 humanized monoclonal antibody 56HZ (antibody, human IgG1, kappa, V domains shown)
VH: QVQLQESGPGLVKPSQTLSLTCTVSGYFNSITSDYDWHWIRHHPGKGLEWMGYISFSGRTYYNPSLKSRVTISHDTSKNQFSLKLSSVTAADTAVYYCARGNYDGFDYWGQGTLVTVSS
VL: DIVLTQSPATLSLSPGERATLSCRASQNIGTSIHWYQHKPGQSPRLLIKFASESISGIPARFSGSGSGTDFTLTISSLEPEDFAVYYCQQSKSWPTYTFGGGTKVEIKR
notes: as for B1

As usually defined, the Kd is the concentration at which binding is half-saturated. The term IC50 denotes the concentration at which inhibition is half-maximal.

Residue numbers refer to the chain shown, from its start.

One test concerns the target T3, cynomolgus monkey Nectin-4 protein (cynomolgus monkey).
T3 construct: also called cynomolgus monkey Nectin-4 antigen
As to the kind of experiment: BLI (Octet Fortebio), antibody on ProA sensor, Nectin-4 as analyte, 1:1 global fit. As for the experimental part: (§1) The dynamic affinity of anti-human Nectin-4 humanized monoclonal antibodies was detected using Octet Fortebio®. The main steps comprised: firstly, the anti-human Nectin-4 humanized monoclonal antibody (concentration of 5 μg/mL) was immobilized on ProA sensor, then subjected to binding reaction with human or cynomolgus monkey Nectin-4 (gradiently diluted to 400 nM, 200 nM, 100 nM, 50 nM, 25 nM, 12.5 nM, 6.25 nM, 0 nM), and the anchored product in the solid phase obtained through fully reaction was subjected to dissociation reaction in PBST buffer. After the completion of the experiment, the results were analyzed by using Data Analysis 11.0 software at 1:1 mode to perform global fitting, thereby obtaining the affinity constant of antibody to antigen.
Turning to B1, the Kd is 9.54 nM.

For the molecule B2, the Kd worked out at 14.5 nM.

Consider B3, for which binding was characterised by a dissociation constant (Kd) of 18.4 nM.

The target of a further test is T1, human Nectin-4 protein. The description is as above. As for the experimental part: as §1
In the case of B1, the affinity, expressed as Kd, was 12.1 nM.

B2 had a Kd of 22.5 nM.

In turn, B3 came in with a Kd of 19.6 nM.

The target of the next test is T2, two IgC domains of human Nectin-4 …. As to the kind of experiment: flow cytometry on A549-Nectin-4-IgCC cells. From the text:
Human Nectin-4 contains one IgV domain and two IgC domains. To determine the binding domain of the anti-human Nectin-4 humanized monoclonal antibodies, an A549 stable cell line A549-Nectin-4-IgV overexpressing Nectin-4 IgV domain, and an A549 stable cell line A549-Nectin-4-IgCC overexpressing two IgC domains of Nectin-4 were constructed, and the binding domains of the antibody to be tested were detected by flow cytometry. The specific steps were as follows: A549-Nectin-4-IgV and A549-Nectin-4-IgCC cells were digested, resuspended by centrifugation, washed twice with PBS; the cells were resuspended with PBS (containing 1% BSA), and spread at 300,000 cells/well into a 96-well tip-bottom plate, 50 μl per well; 50 μL of the antibody to be tested at a final concentration of 40 μg/mL was added to each well, and Human IgG was used as a negative control; after being mixed well, the resulting mixture was reacted in the dark at 4° C. for 1 hour; washing was performed 3 times with PBS, FITC-labeled anti-human Fc secondary antibody (brand: BioLegend, product number: 409322) was added, incubated at 4° C. for 0.5 hours in the dark; washing was performed 3 times with PBS, and detection was carried out using a flow cytometer (flow cytometer brand: Beckman, model: Cytoflex).
A general note: A flow cytometer gives signals particle by particle.
B1: the binding result is reported as “no binding”.

Take B2: the binding result is “no binding”.

As for B3, the binding result is on record as “no binding”.

The target of a further test is T1, human Nectin-4 protein. As to the kind of experiment: competitive ELISA, coated Nectin-4; competitor biotin-labeled Nectin-1-hFc. As for the experimental part: Human Nectin-4 is linked to another Nectin-4 molecule or Nectin-1 molecule through the IgV domain. Because 31HZ, 56HZ and 74HZ all bind to the IgV domain of Nectin-4, the competitive activity of the three antibodies was detected by competitive ELISA. The specific steps were as follows: Nectin-4 protein was diluted to 2 μg/mL with CBS coating solution, 100 μL per well, and incubated at 37° C. for 2 hours; washing was performed once with 300 μL PBST, PBS (2% BSA) was then added, 100 μL per well, and incubation was performed at 37° C. for 2 hours; biotin-labeled Nectin-1-hFc was diluted with PBS (2% BSA) to 20 μg/mL; the antibody to be detected was diluted with PBS (2% BSA), wherein the dilution of 31HZ and 74HZ was started from 3.73 μg/mL, 3-fold dilution, and 9 concentration points, the dilution of 56HZ was started from 1.25 μg/mL, 2-fold dilution, and 10 concentration points; the above two diluted solutions were mixed well in equal volumes, and then added to the corresponding well at 100 μL/well, and incubation was performed at room temperature for 2 hours; washing was performed three times with 300 μL PBST; HRP-streptavidin was diluted with PBS (2% BSA) at a ratio of […], and added to the corresponding well at 100 μL/well, incubation was performed at room temperature for 1 hour; washing was performed five times with 300 μL of PBST; 100 μL of TMB was added to the corresponding well, color development was performed at room temperature for 10 minutes, and then terminated by adding 50 μL of 2N H₂SO₄, and a microplate reader was used for collecting readings at 450 nm.
Molecule B1 displayed an IC50 of 0.0272 µg/mL.

The molecule B2 gave an IC50 of 0.0276 µg/mL.

For the molecule B3, the IC50 stood at 0.0269 µg/mL.
